{
  "source": "the supplement of paper PMC12764529",
  "key": {"[1]": {"experiment": "folding stability dG unfold from trypsin proteolysis; higher = more stable", "outline": "(§1)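 Mini-proteins designed to be under 80 residues and free of cysteine were carried in a PA-tagged cDNA display construct and digested with trypsin and with chymotrypsin. Each protease was applied at 11 threefold-diluted concentrations, alongside a no-protease condition, before sequencing. K50 came from Bayesian fitting of the sequencing counts, and unfolding free energy was obtained by comparing it with a sequence-predicted unfolded-state K50 and a shared folded-state K50, for each protease separately or for both together. Designs were retained only if their AlphaFold2 dimer inter-PAE exceeded 15.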"}, "[2]": {"experiment": "folding stability dG unfold from chymotrypsin proteolysis; higher = more stable", "outline": "as §1"}, "[3]": {"experiment": "folding stability dG unfold (combined trypsin and chymotrypsin); higher = more stable", "outline": "as §1"}},
  "note": "± gives the half width of the 95% confidence interval.",
  "data": [
    {"sequence": "SYDHMRKWIKQAAQERGLKVTNIDIEPTPKTNTFKMSIEIPNGREINFEFQHDKNGGWQFTIQQIKNALKSA [r9_85_TrROS]", "values": [
      {"measurement": "folding stability dG unfold", "setting": "[1]", "value": "2.07 ± 0.084", "unit": "kcal/mol"},
      {"measurement": "folding stability dG unfold", "setting": "[2]", "value": "2.8 ± 0.039", "unit": "kcal/mol"},
      {"measurement": "folding stability dG unfold", "setting": "[3]", "value": "2.69 ± 0.2", "unit": "kcal/mol"}
    ]},
    {"sequence": "SYWIRITINGQTIMFPAEDADKLLGELQSNGWRIKITDIEPDPDDDWIMFKINIRPPKPPPPPPPDPDGKSA [r9_448_TrROS]", "values": [
      {"measurement": "folding stability dG unfold", "setting": "[1]", "value": "2 ± 0.11", "unit": "kcal/mol"},
      {"measurement": "folding stability dG unfold", "setting": "[2]", "value": "3.47 ± 0.041", "unit": "kcal/mol"},
      {"measurement": "folding stability dG unfold", "setting": "[3]", "value": "3.17 ± 0.34", "unit": "kcal/mol"}
    ]},
    {"sequence": "WMWVIKVRNPKNGKKRTIMIPDDPERAKNQIKNLKKQDPNMTVEIIGIKEPEVRKAAKEAGLDDIEVEPMPS [r1_114_TrROS]", "values": [
      {"measurement": "folding stability dG unfold", "setting": "[1]", "value": "0.758 ± 0.091", "unit": "kcal/mol"},
      {"measurement": "folding stability dG unfold", "setting": "[2]", "value": "0.666 ± 0.34", "unit": "kcal/mol"},
      {"measurement": "folding stability dG unfold", "setting": "[3]", "value": "0.726 ± 0.31", "unit": "kcal/mol"}
    ]},
    {"sequence": "YKAKITSVSFIPGEGYIVFNVEVIGPDGIPATFPIVIKIEIEPEEPDPAPPVIKDPNGKVYNPIIPKWFDAS [r1_270_TrMRF]", "values": [
      {"measurement": "folding stability dG unfold", "setting": "[1]", "value": "1.5 ± 0.043", "unit": "kcal/mol"},
      {"measurement": "folding stability dG unfold", "setting": "[2]", "value": "2.38 ± 0.054", "unit": "kcal/mol"},
      {"measurement": "folding stability dG unfold", "setting": "[3]", "value": "2.13 ± 0.09", "unit": "kcal/mol"}
    ]},
    {"sequence": "YMVFIRIEVEDPKNGEEKAEIPIPIPIPPGDLKNMPPEDREKMIEEAKYFAEELAEEKGNVKIKPEIQWFES [r1_115_TrROS]", "values": [
      {"measurement": "folding stability dG unfold", "setting": "[1]", "value": "-0.246 ± 0.19", "unit": "kcal/mol"},
      {"measurement": "folding stability dG unfold", "setting": "[2]", "value": "-0.226 ± 0.66", "unit": "kcal/mol"},
      {"measurement": "folding stability dG unfold", "setting": "[3]", "value": "-0.0293 ± 0.23", "unit": "kcal/mol"}
    ]}
  ]
}
